Assay results as given in patent US20170096461A1 (IMMATICS BIOTECHNOLOGIES, published 2017).

Target: T1, HLA-A*02:01 (peptide-receptive MHC class I monomer after UV-ligand exchange) (human)
T1 construct: Monomers made with a UV-sensitive peptide that is cleaved by UV and exchanged for the test peptide; captured on streptavidin plates; also called MHC molecules
Experiment: UV-ligand exchange + anti-b2m ELISA; exchange yield grade: + >=10%, ++ >=20%, +++ >=50, ++++ >=75%
Description: Candidate peptides for T cell based therapies according to the present invention were further tested for their MHC binding capacity (affinity). The individual peptide-MHC complexes were produced by UV-ligand exchange, where a UV-sensitive peptide is cleaved upon UV-irradiation, and exchanged with the peptide of interest as analyzed. Only peptide candidates that can effectively bind and stabilize the peptide-receptive MHC molecules prevent dissociation of the MHC complexes. To determine the yield of the exchange reaction, an ELISA was performed based on the detection of the light chain (β2m) of stabilized MHC complexes. The assay was performed as generally described in Rodenko et al. (Rodenko et al., 2006).
96 well MAXISorp plates (NUNC) were coated over night with 2 ug/ml streptavidin in PBS at room temperature, washed 4× and blocked for 1 h at 37° C. in 2% BSA containing blocking buffer. Refolded HLA-A*02:01/MLA-001 monomers served as standards, covering the range of 15-500 ng/ml. Peptide-MHC monomers of the UV-exchange reaction were diluted 100 fold in blocking buffer. Samples were incubated for 1 h at 37° C., washed four times, incubated with 2 ug/ml HRP conjugated anti-β2m for 1 h at 37° C., washed again and detected with TMB solution that is stopped with […]. Absorption was measured at 450 nm. Candidate peptides that show a high exchange yield (preferably higher than 50%, most preferred higher than 75%) are generally preferred for a generation and production of antibodies or fragments thereof, and/or T cell receptors or fragments thereof, as they show sufficient avidity to the MHC molecules and prevent dissociation of the MHC complexes.

Binder	peptide exchange yield
VLLSGLTEV [peptide VLLSGLTEV (SEQ ID NO: 59)]	≥ 75%
IQHDLIFSL [peptide IQHDLIFSL (SEQ ID NO: 89)]	50 to 75%
SLDLHVPSL [peptide SLDLHVPSL (SEQ ID NO: 75)]	50 to 75%
KLFDRSVDL [peptide KLFDRSVDL (SEQ ID NO: 69)]	20 to 50%
NLLKLIAEV [peptide NLLKLIAEV (SEQ ID NO: 96)]	≥ 75%
VLFHQLQEI [peptide VLFHQLQEI (SEQ ID NO: 64)]	50 to 75%
ILMDPSPEYA [peptide ILMDPSPEYA (SEQ ID NO: 80)]	50 to 75%
VMYDLITEL [peptide VMYDLITEL (SEQ ID NO: 65)]	50 to 75%
SLQSLIISV [peptide SLQSLIISV (SEQ ID NO: 5)]	≥ 75%
ALFARPDLLLL [peptide ALFARPDLLLL (SEQ ID NO: 102)]	≥ 75%
LLIADNPQL [peptide LLIADNPQL (SEQ ID NO: 55)]	≥ 75%
LLMSTENEL [peptide LLMSTENEL (SEQ ID NO: 63)]	50 to 75%
FLLSQIVAL [peptide FLLSQIVAL (SEQ ID NO: 50)]	50 to 75%
ALVDHLNVGV [peptide ALVDHLNVGV (SEQ ID NO: 98)]	50 to 75%
RLALNTPKV [peptide RLALNTPKV (SEQ ID NO: 49)]	20 to 50%
ALRETVVEV [peptide ALRETVVEV (SEQ ID NO: 93)]	50 to 75%
VADPETRTV [peptide VADPETRTV (SEQ ID NO: 100)]	10 to 20%
ALSSVIKEL [peptide ALSSVIKEL (SEQ ID NO: 82)]	50 to 75%
KLQDGVHII [peptide KLQDGVHII (SEQ ID NO: 91)]	50 to 75%
SLSGEIILHSV [peptide SLSGEIILHSV (SEQ ID NO: 45)]	20 to 50%
RIIDPEDLKALL [peptide RIIDPEDLKALL (SEQ ID NO: 78)]	≥ 75%
KAIGSLKEV [peptide KAIGSLKEV (SEQ ID NO: 72)]	50 to 75%

Binder	peptide exchange yield
FLDSLSPSV [peptide FLDSLSPSV (SEQ ID NO: 74)]	50 to 75%
TLLWKLVEV [peptide TLLWKLVEV (SEQ ID NO: 70)]	20 to 50%
ALLDGTVFEI [peptide ALLDGTVFEI (SEQ ID NO: 97)]	50 to 75%
YQAPYFLTV [peptide YQAPYFLTV (SEQ ID NO: 61)]	50 to 75%
GLLEALLKI [peptide GLLEALLKI (SEQ ID NO: 47)]	50 to 75%
YLNLISTSV [peptide YLNLISTSV (SEQ ID NO: 66)]	50 to 75%
VMLPIGAVVMV [peptide VMLPIGAVVMV (SEQ ID NO: 62)]	50 to 75%
FIFEQVQNV [peptide FIFEQVQNV (SEQ ID NO: 71)]	50 to 75%
MLYDIVPVV [peptide MLYDIVPVV (SEQ ID NO: 67)]	50 to 75%
KVIDYVPGI [peptide KVIDYVPGI (SEQ ID NO: 86)]	50 to 75%
TLVDNISTMAL [peptide TLVDNISTMAL (SEQ ID NO: 90)]	50 to 75%
VVSGATETL [peptide VVSGATETL (SEQ ID NO: 60)]	≥ 75%
ALFPVAEDISL [peptide ALFPVAEDISL (SEQ ID NO: 94)]	50 to 75%
FLFPVYPLI [peptide FLFPVYPLI (SEQ ID NO: 68)]	50 to 75%
YLQDYTDRV [peptide YLQDYTDRV (SEQ ID NO: 92)]	50 to 75%
GLLGDIAIHL [peptide GLLGDIAIHL (SEQ ID NO: 7)]	50 to 75%
SLFSQMGSQYEL [peptide SLFSQMGSQYEL (SEQ ID NO: 56)]	50 to 75%
LLSEEHITL [peptide LLSEEHITL (SEQ ID NO: 53)]	≥ 75%
VLLNINGIDL [peptide VLLNINGIDL (SEQ ID NO: 58)]	≥ 75%
AIIDGKIFCV [peptide AIIDGKIFCV (SEQ ID NO: 77)]	50 to 75%
KLLEIDIDGV [peptide KLLEIDIDGV (SEQ ID NO: 83)]	50 to 75%

Other lines, results leading:

peptide exchange yield	Binder
≥ 75%	VLIGDVLVAV [peptide VLIGDVLVAV (SEQ ID NO: 57)]
≥ 75%	ALYSKGILL [peptide ALYSKGILL (SEQ ID NO: 95)]
50 to 75%	TLIQFTVKL [peptide TLIQFTVKL (SEQ ID NO: 104)]
50 to 75%	KMFENEFLL [peptide KMFENEFLL (SEQ ID NO: 84)]
50 to 75%	RLLEPAQVQQL [peptide RLLEPAQVQQL (SEQ ID NO: 79)]
50 to 75%	SLSSYTPDV [peptide SLSSYTPDV (SEQ ID NO: 73)]
≥ 75%	LLQNNLPAV [peptide LLQNNLPAV (SEQ ID NO: 87)]
20 to 50%	AAAPGEALHTA [peptide AAAPGEALHTA (SEQ ID NO: 9)]
≥ 75%	SIMDYVVFV [peptide SIMDYVVFV (SEQ ID NO: 6)]
50 to 75%	KLFAIPILL [peptide KLFAIPILL (SEQ ID NO: 11)]
≥ 75%	ILASFMLTGV [peptide ILASFMLTGV (SEQ ID NO: 52)]
50 to 75%	AMNSQILEV [peptide AMNSQILEV (SEQ ID NO: 101)]
≥ 75%	QMLEAIKALEV [peptide QMLEAIKALEV (SEQ ID NO: 99)]
50 to 75%	FAYDGKDYLTL [peptide FAYDGKDYLTL (SEQ ID NO: 85)]
≥ 75%	HLFDIILTSV [peptide HLFDIILTSV (SEQ ID NO: 54)]
50 to 75%	SLIGLDLSSV [peptide SLIGLDLSSV (SEQ ID NO: 48)]
50 to 75%	ILDEAGVKYFL [peptide ILDEAGVKYFL (SEQ ID NO: 51)]
≥ 75%	TLHRETFYL [peptide TLHRETFYL (SEQ ID NO: 88)]
50 to 75%	LLAEIGAVTLV [peptide LLAEIGAVTLV (SEQ ID NO: 81)]
50 to 75%	ALWVAVPKA [peptide ALWVAVPKA (SEQ ID NO: 46)]
≥ 75%	SLLEYQMLV [peptide SLLEYQMLV (SEQ ID NO: 103)]
≥ 75%	ALIVGIPSV [peptide ALIVGIPSV (SEQ ID NO: 44)]
